The text below walks through data of patent US20150111251A1 (AbbVie / Abbott, published 2015).

As usually defined, the Kd is a measure of binding affinity in units of concentration. The koff is the first-order rate constant of dissociation. One may read the kon as a measure of how fast the partners come together.

The labels stand for the following.
B1: AB369 (antibody, V domains shown)
VH: EVQLVQSGAEVKKPGASVKVSCKASGYTFTNYGMNWVRQAPGQGLEWMGWINTYTGEPTYADDFKGRVTMTTDTSTSTAYMELSSLRSEDTAVYYCARKFLTTVVVTDYAMDYWGQGTTVTVSS
VL: DIQMTQSPSSLSASVGDRVTITCRASQDISNYLNWYQQKPGKAPKLLIYYTSRLQSGVPSRFSGSGSGTDFTLTISSLQPEDFATYYCQQGNTLPPTFGQGTKLEIK
notes: Full-length humanized antibody made in HEK 293-6E; also called hMAK199VH.2/hMAK199VL.1
B2: AB376 (antibody, V domains shown)
VH: B1 VH with V2I, V68F, M70F, T72L, Y95F
VL: B1 VL with A43T, P44V, F71Y, Y87F
notes: Full-length humanized antibody made in HEK 293-6E; also called hMAK199VH.2a/hMAK199VL.1a
B3: AB382 (antibody, V domains shown)
VH: B1 VH with V2I, M70F
VL: B1 VL with A43T, P44V, F71Y, Y87F
notes: Full-length humanized antibody made in HEK 293-6E; also called hMAK199VH.2b/hMAK199VL.1a
B4: AB370 (antibody, V domains shown)
VH: B1 VH
VL: B1 VL with A43T, P44V, F71Y, Y87F
notes: Full-length humanized antibody made in HEK 293-6E; also called hMAK199VH.2/hMAK199VL.1a
B5: AB375 (antibody, V domains shown)
VH: B1 VH with V2I, V68F, M70F, T72L, Y95F
VL: B1 VL
notes: Full-length humanized antibody made in HEK 293-6E; also called hMAK199VH.2a/hMAK199VL.1
B6: AB383 (antibody, V domains shown)
VH: B1 VH with V2I, M70F
VL: B1 VL with F71Y
notes: Full-length humanized antibody made in HEK 293-6E; also called hMAK199VH.2b/hMAK199VL.1b
B7: AB381 (antibody, V domains shown)
VH: B1 VH with V2I, M70F
VL: B1 VL
notes: Full-length humanized antibody made in HEK 293-6E; also called hMAK199VH.2b/hMAK199VL.1
B8: AB371 (antibody, V domains shown)
VH: B1 VH
VL: B1 VL with F71Y
notes: Full-length humanized antibody made in HEK 293-6E; also called hMAK199VH.2/hMAK199VL.1b
B9: AB367 (antibody, V domains shown)
VH: EVQLVQSGSELKKPGASVKVSCKASGYTFTNYGMNWVRQAPGQGLEWMGWINTYTGEPTYADDFKGRFVFSLDTSVSTAYLQISSLKAEDTAVYFCARKFLTTVVVTDYAMDYWGQGTTVTVSS
VL: DIVMTQSPAFLSVTPGEKVTITCRASQDISNYLNWYQQKPDQTVKLLIYYTSRLQSGVPSRFSGSGSGTDYTFTISSLEAEDAATYFCQQGNTLPPTFGQGTKLEIK
notes: Full-length humanized antibody made in HEK 293-6E; also called hMAK199VH.1b/hMAK199VL.2a
B10: AB386 (antibody, V domains shown)
VH: B1 VH with V2I, M70F
VL: B9 VL with T43A, V44P, F87Y
notes: Full-length humanized antibody made in HEK 293-6E; also called hMAK199VH.2b/hMAK199VL.2b
B11: AB374 (antibody, V domains shown)
VH: B1 VH
VL: B9 VL with T43A, V44P, F87Y
notes: Full-length humanized antibody made in HEK 293-6E; also called hMAK199VH.2/hMAK199VL.2b
B12: AB385 (antibody, V domains shown)
VH: B1 VH with V2I, M70F
VL: B9 VL
notes: Full-length humanized antibody made in HEK 293-6E; also called hMAK199VH.2b/hMAK199VL.2a
B13: AB373 (antibody, V domains shown)
VH: B1 VH
VL: B9 VL
notes: Full-length humanized antibody made in HEK 293-6E; also called hMAK199VH.2/hMAK199VL.2a
B14: AB379 (antibody, V domains shown)
VH: B1 VH with V2I, V68F, M70F, T72L, Y95F
VL: B9 VL
notes: Full-length humanized antibody made in HEK 293-6E; also called hMAK199VH.2a/hMAK199VL.2a
B15: AB380 (antibody, V domains shown)
VH: B1 VH with V2I, V68F, M70F, T72L, Y95F
VL: B9 VL with T43A, V44P, F87Y
notes: Full-length humanized antibody made in HEK 293-6E; also called hMAK199VH.2a/hMAK199VL.2b
B16: AB368 (antibody, V domains shown)
VH: B9 VH
VL: B9 VL with T43A, V44P, F87Y
notes: Full-length humanized antibody made in HEK 293-6E; also called hMAK199VH.1b/hMAK199VL.2b

Where a chain is given by its changes, count along the chain named.

One experiment deals with T1, Recombinant Human TNF-α/TNFSF1A (human, UniProt P01375 77-233). As to the kind of experiment: cell-based or functional assay.
T1 sequence (P01375 77-233 limits assumed): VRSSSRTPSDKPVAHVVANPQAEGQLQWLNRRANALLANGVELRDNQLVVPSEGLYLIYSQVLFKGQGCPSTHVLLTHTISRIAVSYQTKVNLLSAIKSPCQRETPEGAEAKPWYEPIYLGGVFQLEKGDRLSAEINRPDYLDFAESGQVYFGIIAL
On to B1, for which the “TNFα Neutralization Assay IC50 nM (L929 cells)” value is greater than 20 nM.

Turning to B2, the “TNFα Neutralization Assay IC50 nM (L929 cells)” value was found to be 3.65 nM.

Regarding B3, the “TNFα Neutralization Assay IC50 nM (L929 cells)” value turned out to be 1.19 nM.

For B4, the “TNFα Neutralization Assay IC50 nM (L929 cells)” value is 3.78 nM.

Take B5: the “TNFα Neutralization Assay IC50 nM (L929 cells)” value was 11.4 nM.

On to B6, for which the “TNFα Neutralization Assay IC50 nM (L929 cells)” value was greater than 20 nM.

On to B7, for which the “TNFα Neutralization Assay IC50 nM (L929 cells)” value was found to be 5.9 nM.

As for B8, the “TNFα Neutralization Assay IC50 nM (L929 cells)” value was greater than 20 nM.

With B9, the “TNFα Neutralization Assay IC50 nM (L929 cells)” value amounted to 0.53 nM.

Consider B10, for which the “TNFα Neutralization Assay IC50 nM (L929 cells)” value is greater than 20 nM.

Take B11: the “TNFα Neutralization Assay IC50 nM (L929 cells)” value is greater than 20 nM.

With B12, the “TNFα Neutralization Assay IC50 nM (L929 cells)” value was determined as 9.76 nM.

As to B13, the “TNFα Neutralization Assay IC50 nM (L929 cells)” value was greater than 20 nM.

As for B14, the “TNFα Neutralization Assay IC50 nM (L929 cells)” value was greater than 20 nM.

Turning to B15, the “TNFα Neutralization Assay IC50 nM (L929 cells)” value is greater than 20 nM.

As to B16, the “TNFα Neutralization Assay IC50 nM (L929 cells)” value was 1.09 nM.

A further experiment addresses T1, Recombinant Human TNF-α/TNFSF1A. The experiment in a line: SPR (BIACORE), antibody captured, TNFα in solution. As to the method:
The BIACORE assay (Biacore, Inc, Piscataway, N.J.) determines the affinity of antibodies with kinetic measurements of on-rate and off-rate constants. Binding of antibodies to a target antigen (for example, a purified recombinant target antigen) is determined by surface plasmon resonance-based measurements with a Biacore® 1000 or 3000 instrument (Biacore® AB, Uppsala, Sweden) using running HBS-EP (10 mM HEPES [pH 7.4], 150 mM NaCl, 3 mM EDTA, and 0.005% surfactant P20) at 25° C. All chemicals are obtained from Biacore® AB (Uppsala, Sweden) or otherwise from a different source as described. For example, approximately 5000 RU of goat anti-mouse IgG, (Fcγ), fragment specific polyclonal antibody (Pierce Biotechnology Inc, Rockford, Ill.) diluted in 10 mM sodium acetate (pH 4.5) is directly immobilized across a CM5 research grade biosensor chip using a standard amine coupling kit according to manufacturer's instructions and procedures at 25 μg/ml. Unreacted moieties on the biosensor surface are blocked with ethanolamine. Modified carboxymethyl dextran surface in flowcell 2 and 4 is used as a reaction surface. Unmodified carboxymethyl dextran without goat anti-mouse IgG in flow cell 1 and 3 is used as the reference surface. For kinetic analysis, rate equations derived from the 1:1 Langmuir binding model are fitted simultaneously to association and dissociation phases of all eight injections (using global fit analysis) with the use of Biaevaluation 4.0.1 software. Purified antibodies are diluted in HEPES-buffered saline for capture across goat anti-mouse IgG specific reaction surfaces. Antibodies to be captured as a ligand (25 μg/ml) are injected over reaction matrices at a flow rate of 5 μl/minute. The association and dissociation rate constants, kₒₙ (M⁻¹ s⁻¹) and koff (s⁻¹), are determined under a continuous flow rate of 25 μl/minute. Rate constants are derived by making kinetic binding measurements at different antigen concentrations ranging from 10-200 nM. The equilibrium dissociation constant (M) of the reaction between antibodies and the target antigen is then calculated from the kinetic rate constants by the following formula: KD=koff/kₒₙ. Binding is recorded as a function of time and kinetic rate constants are calculated. In this assay, on-rates as fast as 10⁶ M⁻¹ s⁻¹ and off-rates as slow as 10⁻⁶ s⁻¹ can be measured.
A general note: In SPR one partner is held on a chip, and binding of the other changes the refractive index at the surface.
For B1, the Kd is 1.1 nM, the koff is 0.001 s⁻¹ and the kon is 940000 M⁻¹ s⁻¹.

In the case of B2, the Kd was determined as 1.3 nM, the koff amounted to 0.0014 s⁻¹ and the kon was determined as 1.1e+06 M⁻¹ s⁻¹.

As for B3, the Kd came to 2 nM, the koff worked out at 0.0015 s⁻¹ and the on-rate constant (kon) was 740000 M⁻¹ s⁻¹.

On to B4, for which the dissociation constant (Kd) was 1.1 nM, the koff was 0.0012 s⁻¹ and the kon worked out at 1e+06 M⁻¹ s⁻¹.

With B5, the Kd amounted to 1.3 nM, the koff is 0.0011 s⁻¹ and the kon came to 900000 M⁻¹ s⁻¹.

Take B6: the Kd is 2.1 nM, the koff is 0.0018 s⁻¹ and the kon stood at 830000 M⁻¹ s⁻¹.

As for B7, the Kd came to 1.9 nM, the koff worked out at 0.0017 s⁻¹ and the kon is 860000 M⁻¹ s⁻¹.

For B8, the Kd stood at 1.2 nM, the koff turned out to be 0.0017 s⁻¹ and the kon was determined as 1.5e+06 M⁻¹ s⁻¹.

Consider B9, for which the Kd came to 1 nM, the koff worked out at 0.001 s⁻¹ and the kon stood at 1e+06 M⁻¹ s⁻¹.

On to B10, for which the Kd worked out at 2.3 nM, the koff amounted to 0.0015 s⁻¹ and the kon turned out to be 660000 M⁻¹ s⁻¹.

As for B11, the Kd was determined as 1.3 nM, the dissociation rate constant (koff) is 0.0015 s⁻¹ and the kon turned out to be 1.2e+06 M⁻¹ s⁻¹.

On to B12, for which the Kd was 2.2 nM, the koff worked out at 0.0019 s⁻¹ and the kon turned out to be 880000 M⁻¹ s⁻¹.

On to B13, for which the Kd is 1.2 nM, the koff is 0.0012 s⁻¹ and the kon stood at 940000 M⁻¹ s⁻¹.

For B14, the Kd worked out at 1.8 nM, the koff came out at 0.0016 s⁻¹ and the kon worked out at 890000 M⁻¹ s⁻¹.

As for B15, the dissociation constant Kd was 1.8 nM, the koff was determined as 0.0015 s⁻¹ and the kon was found to be 820000 M⁻¹ s⁻¹.

For B16, the Kd was determined as 1 nM, the koff worked out at 0.0011 s⁻¹ and the on-rate constant (kon) was found to be 1.1e+06 M⁻¹ s⁻¹.
